According to patent publication EP2871189A1, “High-affinity monoclonal anti-strep-tag antibody” (INSTITUT PASTEUR, priority 2013, dated 2015):

Biological target: Strep-Tag II peptide WSHPQFEK (SEQ ID NO:9)
Test: ELISA assay after Friguet et al 1985

Kd: 0.14 nM
B1: monoclonal antibody C23.21 (antibody, V domains shown)
VH: EVQLEQSGPELVKPGASVKMSCKASGYTFTNYYMKWVKQSHGKSLEWIGDLNPNNGDTFYNQKFKGKATLTVDKSSNTAYMQLNSLTSEDSAVYYCARTGRYEENAMDYWGQGTSVTVSS
VL: ELVMTQSPASLAVSLGQRATISCRASESVDSYGKSFMHWYQLKPGQPPKLLIYRASNLESGVPARFSGSGSRTDFTLTIDPVEADDAATYYCQQNNEDPWTFGGGTKLEIK
